Laboratory results reported in patent US20200033363A1 (GARVAN INSTITUTE OF MEDICAL RESEARCH, published 2020).
Values belong to the binder of their own block, whether it stands above or below them.

Tests used:
mouse VEGFA164 = molecular target: T1, mouse VEGFA164 (mouse, UniProt Q00731-2 27-190); assay: biolayer interferometry
T1 sequence (looked up): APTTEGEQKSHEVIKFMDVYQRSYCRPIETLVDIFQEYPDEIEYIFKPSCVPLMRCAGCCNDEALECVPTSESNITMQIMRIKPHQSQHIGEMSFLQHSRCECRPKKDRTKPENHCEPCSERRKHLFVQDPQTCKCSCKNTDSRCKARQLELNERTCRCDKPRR

human VEGFB = molecular target: T2, human VEGFB (human, UniProt P49765-2 22-188, limits assumed); assay: biolayer interferometry
T2 sequence (looked up): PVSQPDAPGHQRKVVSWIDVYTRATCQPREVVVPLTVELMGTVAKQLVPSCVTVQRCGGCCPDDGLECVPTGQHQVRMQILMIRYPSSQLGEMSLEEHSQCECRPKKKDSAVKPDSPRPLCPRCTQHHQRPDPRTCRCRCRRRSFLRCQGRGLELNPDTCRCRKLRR

human PlGF = molecular target: T3, human PlGF (human, UniProt P49763-2 19-149, limits assumed); assay: biolayer interferometry
T3 sequence (looked up): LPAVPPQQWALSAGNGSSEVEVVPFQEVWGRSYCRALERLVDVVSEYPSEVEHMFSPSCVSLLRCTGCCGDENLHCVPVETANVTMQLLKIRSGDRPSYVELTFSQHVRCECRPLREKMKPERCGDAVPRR

human VEGFA 121 [1] = molecular target: T4, human VEGFA 121 (human, UniProt P15692-9 27-147, biotinylated (BLI assays)); assay: bio-layer interferometry on immobilised VEGF (biotinylated VEGFA 121 by paragraph 199)
T4 construct: also called biotinylated VEGF
T4 sequence (looked up): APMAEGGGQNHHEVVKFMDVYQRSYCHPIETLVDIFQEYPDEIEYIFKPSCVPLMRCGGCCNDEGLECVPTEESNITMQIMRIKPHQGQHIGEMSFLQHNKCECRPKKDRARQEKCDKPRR

human VEGFA 121 [2] = molecular target: T4, human VEGFA 121; assay: biolayer interferometry, generally the same method as for Ig5 and Ig12; immobilized biotinylated VEGF
[3] = molecular target: T5, hen egg-white lysozyme (HEL) (hen, UniProt P00698 19-147); assay: biolayer interferometry (BLItz); HEL captured by biotinylated HyHEL-10 Fab on streptavidin sensors; Ig5 at 2000, 1000, 500 nM
T5 construct: Bought protein; It was biotinylated for phage selection; In BLI it was captured through biotinylated HyHEL-10 or HyHEL-5 Fab; also called hen egg white lysozyme antigen

[4] = molecular target: T5, hen egg-white lysozyme (HEL); assay: biolayer interferometry (Example 5); printed as 'Affinity (nM)' in Table 4
[5] = molecular target: T5, hen egg-white lysozyme (HEL); assay: printed as 'Affinity (nM)' in Table 4; method not given; differs from the 30 nM of Example 5
[6] = molecular target: T5, hen egg-white lysozyme (HEL); assay: biolayer interferometry (BLItz); HEL captured by biotinylated HyHEL-5 Fab on streptavidin sensors; Ig12 at 1000, 750, 375 nM

T5 sequence (P00698 19-147): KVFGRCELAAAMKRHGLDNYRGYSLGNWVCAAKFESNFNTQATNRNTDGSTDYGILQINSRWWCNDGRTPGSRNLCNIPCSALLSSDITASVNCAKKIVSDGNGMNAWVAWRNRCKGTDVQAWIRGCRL

B1: VLD9 fused to mouse IgG2c hinge-Fc region (VLD9-Fc, long native hinge) (Fc fusion)
chain: DIQMTQSPSSLSASVGDRVTITCRASRAIAAYLNWYQQKPGKAPKLLIYAYSDLQSGVPSRFSGSGSGTDFTLTISSLQPEDFATYYCQQVWANPYTFGQGTKVEIKRA
notes: domain: hinge and Fc region; Expressed in Expi293 cells; also called VLD9-Fc native hinge; VLD9-Fc fusion protein; not shown: Mouse IgG2c hinge and Fc region
Kd (mouse VEGFA164): < 10 nM
binding result (human VEGFB): no binding
binding result (human PlGF): no binding
Kd (human VEGFA 121 [1]): ~3 nM

B3: immunoglobulin homodimer Ig5 (other)
VL: DIQMTQSPSSLSASVGDRVTITCRASQDIAAALNWYQQKPGKAPKLLIYASSYLQSGVPSRFSGSGSGTDFTLTISSLQPEDFATYYCQQDGYYPATFGQGTKVEIKR
notes: also called VL5; Ig52
koff [3]: 0.0057 s⁻¹
kon [3]: 43000 M⁻¹ s⁻¹
Kd [4]: 130 nM

More lines, now with the values ahead:

Kd (human VEGFA 121 [2]): < 10 nM
B2: VLD9 homodimer (other)
VL: DIQMTQSPSSLSASVGDRVTITCRASRAIAAYLNWYQQKPGKAPKLLIYAYSDLQSGVPSRFSGSGSGTDFTLTISSLQPEDFATYYCQQVWANPYTFGQGTKVEIKRA
notes: Homodimer of two identical human light chain variable domains selected on VEGF; Expressed generally as Ig5 and Ig12 were; also called VLD9 dimer; immunoglobulin VLD9

Kd [5]: 64 nM
Kd [6]: 30 nM
koff [6]: 0.0025 s⁻¹
kon [6]: 84000 M⁻¹ s⁻¹
B4: immunoglobulin homodimer Ig12 (other)
VL: DIQMTQSPSSLSASVGDRVTITCRASQDIASDLNWYQQKPGKAPKLLIYSDSYLQSGVPSRFSGSGSGTDFTLTISSLQPEDFATYYCQQYYMIPSTFGQGTKVEIKR
notes: Homodimer of two identical human Vkappa1 light chain variable domains, expressed in E. coli and purified on Protein L. Structure with HEL is PDB 4N1C; also called VL12; Ig122
